Results from PMC12303382.

Target: Clostridioides difficile transferase B component, CDTb_(45-876), activated with trypsin (Clostridioides difficile) (UniProt O32739)
Test: SDS-PAGE of SDS-resistant oligomers

Clostridioides difficile transferase B component, CDTb_(45-876), activated with trypsin (from UniProt O32739 45-876) (natural protein)
fold enhancement of oligomerization with 2.5 M ethanol over water: 7.5 fold
